These results are taken from patent publication US20250382588A1, “CHIMERIC AAV AND USES THEREOF” (priority 2023, published 2025).

Numbering of substitutions follows the chain as printed. Names may count otherwise.

To fix the notation:
B1: AAV8R4: AAV8R capsid mutant R490Q, SEQ ID NO: 5 (protein)
chain: MAADGYLPDWLEDNLSEGIREWWALKPGAPKPKANQQKQDDGRGLVLPGYKYLGPFNGLDKGEPVNAADAAALEHDKAYDQQLQAGDNPYLRYNHADAEFQERLQEDTSFGGNLGRAVFQAKKRVLEPLGLVEEGAKTAPGKKRPVEPSPQRSPDSSTGIGKKGQQPARKRLNFGQTGDSESVPDPQPLGEPPAAPSGVGPNTMAAGGGAPMADNNEGADGVGSSSGNWHCDSTWLGDRVITTSTRTWALPTYNNHLYKQISNGTSGGATNDNTYFGYSTPWGYFDFNRFHCHFSPRDWQRLINNNWGFRPKRLSFKLFNIQVKEVTQNEGTKTIANNLTSTIQVFTDSEYQLPYVLGSAHQGCLPPFPADVFMIPQYGYLTLNDGSQAVGRSSFYCLEYFPSQMLRTGNNFQFTYTFEDVPFHSSYAHSQSLDRLMNPLIDQYLYYLSRTQTTGGTANTQTLGFSQGGPNTMANQAKNWLPGPCYRQQQVSTTTGQNNNSNFAWTAGTKYHLNGRNSLANPGIAMATHKDDEERFFPSNGILIFGKQNAARDNADYSDVMLTSEEEIKTTNPVATEEYGIVADNLQRGNLADQDYTKTARQAATADVNSQGALPGMVWQNRDVYLQGPIWAKIPHTDGNFHPSPLMGGFGLKHPPPQILIKNTPVPADPPTTFNQSKLNSFITQYSTGQVSVEIEWELQKENSKRWNPEIQYTSNYYKSINVDFAVNTEGVYSEPRPIGTRYLTRNL
B2: AAV8R5: AAV8R capsid mutant V125I, SEQ ID NO: 6 (protein)
chain: B1 chain with V125I, Q490R
B3: AAV8R2: AAV8R capsid mutant N411S, SEQ ID NO: 3 (protein)
chain: B1 chain with N411S, Q490R
B4: AAV8R8: AAV8R capsid mutant T495A, SEQ ID NO: 9 (protein)
chain: B1 chain with Q490R, T495A
B5: AAV8R1: AAV8R capsid mutant V183E, SEQ ID NO: 2 (protein)
chain: B1 chain with V183E, Q490R
B6: AAV8R3: AAV8R capsid mutant Y447F, SEQ ID NO: 4 (protein)
chain: B1 chain with Y447F, Q490R
B7: AAV8R11: AAV8R capsid mutant V125I + T495A, SEQ ID NO: 12 (protein)
chain: B1 chain with V125I, Q490R, T495A
B8: AAV8R7: AAV8R capsid mutant A606S, SEQ ID NO: 8 (protein)
chain: B1 chain with Q490R, A606S
B9: AAV8R9: AAV8R capsid mutant V125I + F536Y, SEQ ID NO: 10 (protein)
chain: B1 chain with V125I, Q490R, F536Y
B10: AAV8R6: AAV8R capsid mutant F536Y, SEQ ID NO: 7 (protein)
chain: B1 chain with Q490R, F536Y
B11: AAV8R10: AAV8R capsid mutant V125I + A606S, SEQ ID NO: 11 (protein)
chain: B1 chain with V125I, Q490R, A606S
B12: AAV8R14: AAV8R capsid mutant V125I + A606S + T495A, SEQ ID NO: 15 (protein)
chain: B1 chain with V125I, Q490R, T495A, A606S
B13: AAV8R13: AAV8R capsid mutant V125I + F536Y + T495A, SEQ ID NO: 14 (protein)
chain: B1 chain with V125I, Q490R, T495A, F536Y

The test deals with striatal D1 MSNs (striatonigral projection neurons). As to the kind of experiment: Retrograde labeling of striatonigral projection neurons after AAV injection into the SNr. The conditions noted are these: AAV8R capsid mutants; numbers of labeled neurons per animal. The test is classed as in vivo, mice. The procedure:
To improve efficiency, multiple rounds of mutations of AAV capsids were performed on a series of different serotypes. Mutations were introduced at three sites in the AAV8 capsid protein to make AAV8R, including N385D, insertion of […] (SEQ ID NO: 31) at position 588, and TS711-712IN. Two additional mutations of V183E and N411S were incorporated into the AAV8R12 capsid protein (FIG. 1A). The labeling pattern of the AAV8R12 capsid and G88 promoter combination was determined.
First, the polypeptide fragment RGNLADODYTKTARQAATAD (SEQ ID NO.: 31) was inserted at the N587-R588 position; two other point mutations of the AAV2 Cap protein were made to develop rAAV2-retro. Similar mutations were then placed at equivalent positions for four other AAV serotypes (FIGS. 1A-IC and 25, TABLE 1), AAV1/5/6/8 (FIG. 1A). […] When administered into the SNr, 4.86±0.22 times EYFP positive MSNs in mice infected by AAV8R-hSyn-EYFP were observed as compared to those infected by rAAV2-retro-hSyn-EYFP (FIG. 2A-2C).
Baseline infectivity of rAAV2-retro was approximately 0.2±0.03×10^4 cells per striatal hemisphere (using a hSyn promoter) (TABLE 2). […] Compared to the current standard retrograde AAV, rAAV2-retro, AAV8R12 labeled 7.72±0.78-times more MSNs after nigral delivery (FIG. 2B-2C, TABLE 1). […] The AAV8R12 was generated using the AAV8R plasmid as a template.
Mice were anesthetized with sodium pentobarbital (Nembutal; 80 mg/kg, i.p.), and then placed into a stereotaxic device (KOPF). Eye cream was applied on both corneas to avoid dehydration. The skull above the targeted areas was thinned with a dental drill and carefully removed. Injections were conducted with a 10 μL syringe connected to a 33-Gauge needle (Neuros; Hamilton), using a microsyringe pump (Legato 130, KD Scientific). A total volume of 200 nL virus was injected into the SNr at a speed of 20 nL/min. The coordinates for the SNr were 3.4 mm posterior, 1.3 mm lateral, 4.8 mm ventral to the bregma.
HEK293T cells (ATCC) were co-transfected by calcium phosphate with an AAV vector plasmid, an AAV Rep-Cap plasmid (rAAV2-retro, AAV1R, AAV5R, AAV6R, AAV8R, and AAV8R1-14), and the pAdDeltaF6 helper plasmid (Addgene, 112867) harboring the adenoviral genes required for the AAV life cycle. HEK293T cells grown in 15 cm cell culture dishes were co-transfected with the mixture of three plasmids (1:1:1) at 80% confluency. 48-72 hours post-transfection, cells were collected and resuspended in a buffer containing 150 mM NaCl and 100 mM Tris-HCl (pH 8.0). Cells were lysed by repeated freeze-thaw cycles in liquid nitrogen and a 37° C. water bath. AAV particles were purified and concentrated using Millipore Amicon 100K columns (Merck Millipore, UFC910008). Encapsidated viral DNA was quantitated by qPCR (Thermo Fisher) with primers recognizing the viral WPRE and/or ITR sequences following denaturation of the AAV particles using Proteinase K. Titers were calculated as genome copies per milliliter.
Images were acquired using a confocal microscope (Carl Zeiss, LSM880) and an Axiolmager.Z1 microscope with apotome (Carl Zeiss). Brain structures were identified microscopically and in digital photos using a mouse brain atlas. To analyze the number of EYFP+ cells in the striatum, slices from rostral to caudal striatum were used. Every sixth section was analyzed, and numbers of EYFP+ cells were multiplied by six to acquire the approximate total number and mean number of cells per animal. Images were processed using ImageJ (NIH, USA), and final quantifications were independently performed manually by two blinded experimenters.
In the case of B1, the “Labeling Efficiency in Striatonigral Pathway” value (“Labeling Efficiency” below) is listed as “+ (<5 k)”.

Consider B2, for which the “Labeling Efficiency” value is reported as “+ (<5 k)”.

In the case of B3, the “Labeling Efficiency” value is “+ (<5 k)”.

Turning to B4, the “Labeling Efficiency” value was “+ (<5 k)”.

Regarding B5, the “Labeling Efficiency” value was “+ (<5 k)”.

In the case of B6, the “Labeling Efficiency” value was “+ (<5 k)”.

Turning to B7, the “Labeling Efficiency” value was “+ (<5 k)”.

In the case of B8, the “Labeling Efficiency” value is listed as “+ (<5 k)”.

With B9, the “Labeling Efficiency” value was “+ (<5 k)”.

B10: the “Labeling Efficiency” value is “+ (<5 k)”.

Take B11: the “Labeling Efficiency” value was “+ (<5 k)”.

As for B12, the “Labeling Efficiency” value is given as “++ (5 k-10 k)”.

Regarding B13, the “Labeling Efficiency” value is on record as “++ (5 k-10 k)”.
